Data published in US20240368267A1 (KODIAK SCIENCES, published 2024).
Residue numbers refer to the chain shown, from its start. Names may count otherwise. One block for each binder: values may come before it.

How the values were obtained:
[1] = biological target: T1, human IL-6 (human, UniProt P05231 30-212); assay: SPR (Biacore T200), purified antibody captured on Protein A, IL-6 flowed over, 37 C
T1 construct: also called interleukin-6
Experimental: (§1) Antibodies were captured on a Protein A chip (GE) by injecting 1:20 cell supernatant dilutions at 10 μL/min for 60 seconds. […] The sensor chip was regenerated by a 60 seconds injection of 10 mM Glycine pH 1.7 at the flow rate of […]. […] For this setup, 1 μg/mL of purified antibody was injected over a Protein A chip at 10 μL/min for 25 seconds. […] The sensor chip was regenerated by a 60 seconds injection of 10 mM Glycine pH 1.7 at flow rate of 50 μL/min. Data analysis for supernatant and purified samples were performed using BIAevaluation software (GE). All sensorgrams were double reference subtracted and fit using a 1:1 Langmuir binding model.

[2] = biological target: T1, human IL-6; assay: SPR (Biacore T200), antibody from cell supernatant captured on Protein A, IL-6 flowed over, 37 C
Experimental: Those four positions were selected based on their tolerance for mutations as observed in bacterial and mammalian screens. […] These cultures were centrifuged and supernatants containing secreted antibodies were harvested and diluted in HBS-EP+ running buffer (1:20 ratio).
as §1

T1 sequence (P05231 30-212 limits assumed): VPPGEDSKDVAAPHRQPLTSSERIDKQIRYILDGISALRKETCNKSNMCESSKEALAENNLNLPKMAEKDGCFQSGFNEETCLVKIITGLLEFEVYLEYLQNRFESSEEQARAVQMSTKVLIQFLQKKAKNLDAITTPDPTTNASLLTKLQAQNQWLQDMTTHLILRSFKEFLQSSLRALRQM

Kd [2]: 0.262 nM
koff [2]: 0.000412 s⁻¹
kon [2]: 1.57e+06 M⁻¹ s⁻¹
B2: anti-IL-6 antibody, heavy chain T65K, G66D / light chain WT (antibody, human IgG1, V domains shown)
VH: EVQLVESGGGLVQPGGSLRLSCAASGFTFSPFAMSWVRQAPGKGLEWVAKISPGGSWTYYSDTVKDRFTFSLDTSKSTAYLQMNSLRAEDTAVYYCARQLWGYYALDIWGQGTLVTVSS
VL: DIQLTQSPSSLSASVGDRVTITCSASISVSYMYWYQQKPGKAPKLLIYDMSNLASGVPSRFSGSGSGTDFTLTISSLQPEDFATYYCMQWSGYPYTFGQGTKVEIK
notes: Derived as m2; Engineered human IgG1

Kd [2]: 0.212 nM
koff [2]: 0.000375 s⁻¹
kon [2]: 1.77e+06 M⁻¹ s⁻¹
B4: anti-IL-6 antibody, heavy chain T65L, G66D / light chain WT (antibody, human IgG1, V domains shown)
VH: B2 VH with K65L
VL: B2 VL
notes: as for B2

Kd [2]: 0.21 nM
koff [2]: 0.000383 s⁻¹
kon [2]: 1.82e+06 M⁻¹ s⁻¹
B5: anti-IL-6 antibody, heavy chain T63Y, G66D / light chain WT (antibody, human IgG1, V domains shown)
VH: B2 VH with T63Y, K65T
VL: B2 VL
notes: as for B2

Kd [2]: 0.219 nM
koff [2]: 0.000356 s⁻¹
kon [2]: 1.63e+06 M⁻¹ s⁻¹
B10: anti-IL-6 antibody, heavy chain T65H, G66D / light chain WT (antibody, human IgG1, V domains shown)
VH: B2 VH with K65H
VL: B2 VL
notes: as for B2

Kd [1]: 0.161 nM
koff [1]: 0.000235 s⁻¹
kon [1]: 1.46e+06 M⁻¹ s⁻¹
Kd [2]: 0.185 nM
koff [2]: 0.000461 s⁻¹
kon [2]: 2.49e+06 M⁻¹ s⁻¹
B11: anti-IL-6 antibody, heavy chain T63K, G66D / light chain WT (antibody, human IgG1, V domains shown)
VH: B2 VH with T63K, K65T
VL: B2 VL
notes: as for B2

Kd [1]: 0.193 nM
koff [1]: 0.000251 s⁻¹
kon [1]: 1.3e+06 M⁻¹ s⁻¹
Kd [2]: 0.203 nM
koff [2]: 0.000408 s⁻¹
kon [2]: 2.01e+06 M⁻¹ s⁻¹
B15: anti-IL-6 antibody, heavy chain T63Q, G66D / light chain WT (antibody, human IgG1, V domains shown)
VH: B2 VH with T63Q, K65T
VL: B2 VL
notes: as for B2

Kd [2]: 0.123 nM
koff [2]: 0.000218 s⁻¹
kon [2]: 1.77e+06 M⁻¹ s⁻¹
B16: anti-IL-6 antibody, heavy chain T65G, G66D / light chain WT (antibody, human IgG1, V domains shown)
VH: B2 VH with K65G
VL: B2 VL
notes: as for B2

Kd [2]: 0.222 nM
koff [2]: 0.000444 s⁻¹
kon [2]: 2e+06 M⁻¹ s⁻¹
B17: anti-IL-6 antibody, heavy chain T65R, G66D / light chain WT (antibody, human IgG1, V domains shown)
VH: B2 VH with K65R
VL: B2 VL
notes: as for B2

Kd [2]: 0.175 nM
koff [2]: 0.000504 s⁻¹
kon [2]: 2.88e+06 M⁻¹ s⁻¹
B19: anti-IL-6 antibody, heavy chain T65V, G66D / light chain WT (antibody, human IgG1, V domains shown)
VH: B2 VH with K65V
VL: B2 VL
notes: as for B2

Kd [1]: 0.147 nM
koff [1]: 0.000252 s⁻¹
kon [1]: 1.72e+06 M⁻¹ s⁻¹
Kd [2]: 0.178 nM
koff [2]: 0.000464 s⁻¹
kon [2]: 2.61e+06 M⁻¹ s⁻¹
B20: anti-IL-6 antibody, heavy chain T63E, G66D / light chain WT (antibody, human IgG1, V domains shown)
VH: B2 VH with T63E, K65T
VL: B2 VL
notes: as for B2

Kd [2]: 0.223 nM
koff [2]: 0.000348 s⁻¹
kon [2]: 1.56e+06 M⁻¹ s⁻¹
B21: anti-IL-6 antibody, heavy chain T65F, G66D / light chain WT (antibody, human IgG1, V domains shown)
VH: B2 VH with K65F
VL: B2 VL
notes: as for B2

More lines, now with the values behind:

B1: anti-IL-6 antibody, heavy chain G66D / light chain WT (antibody, human IgG1, V domains shown)
VH: B2 VH with K65T
VL: B2 VL
notes: as for B2
Kd [1]: 0.113 nM
koff [1]: 0.000178 s⁻¹
kon [1]: 1.57e+06 M⁻¹ s⁻¹
Kd [2]: 0.215 nM
koff [2]: 0.000392 s⁻¹
kon [2]: 1.83e+06 M⁻¹ s⁻¹

B3: anti-IL-6 antibody, heavy chain T65S, G66D / light chain WT (antibody, human IgG1, V domains shown)
VH: B2 VH with K65S
VL: B2 VL
notes: as for B2
Kd [2]: 0.21 nM
koff [2]: 0.000383 s⁻¹
kon [2]: 1.82e+06 M⁻¹ s⁻¹

B6: anti-IL-6 antibody, heavy chain T65W, G66D / light chain WT (antibody, human IgG1, V domains shown)
VH: B2 VH with K65W
VL: B2 VL
notes: as for B2
Kd [2]: 0.226 nM
koff [2]: 0.00037 s⁻¹
kon [2]: 1.64e+06 M⁻¹ s⁻¹

B7: anti-IL-6 antibody, heavy chain T65E, G66D / light chain WT (antibody, human IgG1, V domains shown)
VH: B2 VH with K65E
VL: B2 VL
notes: as for B2
Kd [2]: 0.194 nM
koff [2]: 0.000427 s⁻¹
kon [2]: 2.2e+06 M⁻¹ s⁻¹

B8: anti-IL-6 antibody, heavy chain T65Y, G66D / light chain WT (antibody, human IgG1, V domains shown)
VH: B2 VH with K65Y
VL: B2 VL
notes: as for B2
Kd [2]: 0.224 nM
koff [2]: 0.000361 s⁻¹
kon [2]: 1.61e+06 M⁻¹ s⁻¹

B9: anti-IL-6 antibody, heavy chain T65P, G66D / light chain WT (antibody, human IgG1, V domains shown)
VH: B2 VH with K65P
VL: B2 VL
notes: as for B2
Kd [2]: 0.369 nM
koff [2]: 0.000568 s⁻¹
kon [2]: 1.54e+06 M⁻¹ s⁻¹

B12: anti-IL-6 antibody, heavy chain T65A, G66D / light chain WT (antibody, human IgG1, V domains shown)
VH: B2 VH with K65A
VL: B2 VL
notes: as for B2
Kd [2]: 0.222 nM
koff [2]: 0.000364 s⁻¹
kon [2]: 1.64e+06 M⁻¹ s⁻¹

B13: anti-IL-6 antibody, heavy chain T65D, G66D / light chain WT (antibody, human IgG1, V domains shown)
VH: B2 VH with K65D
VL: B2 VL
notes: as for B2
Kd [2]: 0.203 nM
koff [2]: 0.000442 s⁻¹
kon [2]: 2.18e+06 M⁻¹ s⁻¹

B14: anti-IL-6 antibody, heavy chain WT / light chain WT (antibody, human IgG1, V domains shown)
VH: B2 VH with K65T, D66G
VL: B2 VL
notes: Full antibody on an engineered human IgG1 framework, Fc with L234A, L235A, G237A and L443C (EU numbering), expressed in Expi293 cells; also called wild-type; parent molecule
Kd [1]: 0.226 nM
koff [1]: 0.000128 s⁻¹
kon [1]: 565000 M⁻¹ s⁻¹
Kd [2]: 0.381 nM
koff [2]: 0.000255 s⁻¹
kon [2]: 670000 M⁻¹ s⁻¹

B18: anti-IL-6 antibody, heavy chain S35H, G66D / light chain WT (antibody, human IgG1, V domains shown)
VH: B2 VH with S35H, K65T
VL: B2 VL
notes: as for B2
Kd [1]: 0.105 nM
koff [1]: 0.000185 s⁻¹
kon [1]: 1.77e+06 M⁻¹ s⁻¹
Kd [2]: 0.136 nM
koff [2]: 0.000397 s⁻¹
kon [2]: 2.92e+06 M⁻¹ s⁻¹

B22: anti-IL-6 antibody, heavy chain T65Q, G66D / light chain WT (antibody, human IgG1, V domains shown)
VH: B2 VH with K65Q
VL: B2 VL
notes: as for B2
Kd [1]: 0.148 nM
koff [1]: 0.000262 s⁻¹
kon [1]: 1.77e+06 M⁻¹ s⁻¹
Kd [2]: 0.158 nM
koff [2]: 0.000517 s⁻¹
kon [2]: 3.28e+06 M⁻¹ s⁻¹
